Assays:
[1] = substrate: COc1cc(/C=N/N=C/c2cc(OC)c(O)c(OC)c2)cc(OC)c1O; experiment: Steady-state kinetics of RL5 laccase, spectrophotometric oxidation of laccase substrates; assay type: biochemical, bovine rumen metagenome; details: other: 40° C., pH 4.5, 14 nM protein, substrate 0 to 1 mM
Description: (§2) Protein concentrations were determined according to Bradford (31), with BSA as standard.
(§3) Laccase activity was determined spectrophotometrically in a thermostated spectrophotometer (Perkin-Elmer) at 40° C. in 100 mM sodium citrate buffer, pH 4.5 (1 ml). The standard assay was performed at 530 nm, using SGZ as the oxidation substrate (ε530=64,000 M^−1cm^−1). The reaction was started by adding SGZ, from a stock solution in methanol, to a final concentration of 20 μM. […] Catalytic constants were derived by fitting the experimental data onto the Michaelis-Menten model. Control measurements without enzyme were carried out to correct for possible chemical oxidation of the substrates.

[2] = substrate: COc1cccc(OC)c1O; experiment: as above; assay type: biochemical, bovine rumen metagenome; details: other: 40° C., pH 4.5, 14 nM protein, substrate 0 to 1 mM
Description: as §2, §3

[3] = substrate: CCn1c(=NN=c2sc3cc(S(=O)(=O)O)ccc3n2CC)sc2cc(S(=O)(=O)O)ccc21; experiment: purified protein, by the assay type; details: other: 40° C., pH 4.5, 14 nM protein, substrate 0 to 1 mM
[4] = Laccase activity, spectrophotometric, DMP as substrate; assay type: biochemical; details: data not shown
Description: (§1) Laccase activity was determined spectrophotometrically in a thermostated spectrophotometer (Perkin-Elmer) at 40° C. in 100 mM sodium citrate buffer, pH 4.5 (1 ml). The standard assay was performed at 530 nm, using SGZ as the oxidation substrate (ε530=64,000 M^−1cm^−1). The reaction was started by adding SGZ, from a stock solution in methanol, to a final concentration of 20 μM. […] Oxidation of phenol red (75 μM) was determined by the decrease in absorbance at 432 nm. The activity:pH and activity:temperature relationships were determined by incubating the enzyme:substrate mixtures at different pH values and constant temperature (40° C.), and at different temperatures (15-80° C.) and constant pH (4.5), respectively. Catalytic constants were derived by fitting the experimental data onto the Michaelis-Menten model. Control measurements without enzyme were carried out to correct for possible chemical oxidation of the substrates.

[5] = Laccase activity, veratryl alcohol as substrate; assay type: biochemical; details: data not shown
Description: as §1

[6] = Laccase activity, spectrophotometric, SGZ as substrate; assay type: biochemical; details: data not shown
Description: as §1

[7] = Oxidative reactions of various compounds (substrate preference, overall kinetics, pH range); assay type: biochemical; details: order of oxidized substrates
Description: as §1

[8] = pH- and temperature-dependent activity and inactivation profiles; assay type: biochemical; details: sodium citrate pH 4.5, 1 mM SGZ or DMP
Description: FIG. 2A represents the effect of various pH values on the activity of recombinant purified RL5 laccase. The activity was measured at 40° C. using 1 mM SGZ (syringaldazine) or DMP as substrate. The buffers (100 mM) used were: citrate (pH 3.0-5.5), MES (pH 5.5-7.0), HEPES (pH 7.0-8.0), Tris-HCl (pH 8.0-9.0) and glycine-NaOH (pH 9.0-12). The activity of RL5 for DMP reached an optimum at a broad pH ranging from 3.5-9.0, being optimal at 4.0-5.0; however, it maintained more than 70% activity at pH 3.5 and 9.0 (FIG. 2A).
FIG. 2B represents the pH inactivation of purified RL5 laccase in sodium citrate pH 4.5 (indicated with “∘”) or glycine-NaOH pH 9.0 (indicated with “[…]”) over a time period of 240 min. 100% activity in the purified protein sample equals 7.2 units/mg (measured at 40° C.).
FIG. 2C represents the effect of the temperature on the activity of recombinant purified RL5 laccase. The enzyme activity was assayed at each indicated temperature in sodium citrate pH 4.5 in the presence of 1 mM SGZ or DMP. Activity was monitored at 420 nm. Protein activity increased as the temperature was raised to a maximum at ˜60° C. Therefore, RL5 is stable at high temperatures.
FIG. 2D represents the thermal inactivation of purified RL5 laccase. Purified enzyme was incubated in vials at 60° C. ([…]) or 65° C. (∘). At the indicated times, samples were withdrawn and tested for laccase activity at 40° C. by using SGZ or DMP as a substrate. 100% activity in the purified protein sample equals 17.2 units/mg.
Corresponding experiments were performed with BT4389 and YfiH under conditions as described above for FIGS. 2A to 2D (data not shown). The activity of these enzymes reached an optimum at a temperature of 52° C. (for BT4389) and 44° C. (for YfiH) and the thermal activity maintained for more than 80% at 55° C. (for BT4389) and at 50° C. (for YfiH). The activity of both enzymes reached an optimum at a pH range from 4.5 to 6.0 (for BT4389) and from 5.5 to 8.4 (for YfiH), although 80% activity maintained at pH 4.0 to 7.5 (for BT4389) and 5.0 to 9.0 (for YfiH).
as §1

[9] = Laccase activity, guaiacol as substrate; assay type: biochemical; details: data not shown
Description: as §1

Row | Molecule | Km [1] [µM] | kcat [1] [s⁻¹] | Km [2] [µM] | kcat [2] [s⁻¹] | Km [3] [µM] | kcat [3] [s⁻¹] | oxidation activity [4] [units/g protein] | oxidation activity [5] [units/g protein] | oxidation activity [6] [units/g protein] | substrate preference [7] | temperature optimum of activity [8] [°C] | oxidation activity [9] [units/g protein]
1 | RL5 laccase (bovine rumen metagenome), wild type, FIG. 11 (unidentified prokaryotic organism) (protein) MIELEKLDFAKSVEGVEAFSTTRGQVDGRNAYSGVNLCDYVGDDALRVLDARLTLAMQLGVDLDDLVMPRQTHSCRVAVIDERFRALDIDEQEAALEGVDALVTRLQGIVIGVNTADCVPIVLVDSQAGIVAVSHAGWRGTVGRIAKAVVEEMCRQGATVDRIQAAMGPSICQDCFEVGDEVVEAFKKAHFNLNDIVVRNPATGKAHIDLRAANRAVLVAAGVPAANIVESQHCSRCEHTSFFSARRLGINSGRTFTGIYRK | 0.43 | 663.45 | 0.45 | 1174 | 26.2 | 18.05 | – | – | – | – | – | –
2 | YfiH: DUF152 domain containing hypothetical protein from Escherichia coli, Gene Bank AAG57706, identified as laccase (FIG. 13) (protein, listed as Escherichia coli, Description of sequence amino acid sequence of protein YfiH with unknown function DUF152 from Escherichia coli (Gene Bank accession number AAG57706) (see Fig. 13)) MSKLIVPQWPLPKGVAACSSTRIGGVSLPPYDSLNLGAHCGDNPDHVEENRKRLFAAGNLPSKPVWLEQVHGKDVLNLTGEPYASKRADASYSNTPGRVCAVMTADCLPVLFCNRAGTEVAAAHAGWRGLCAGVLEETVSCFADNPENILAWLGPAIGPRAFEVGAEVREAFMAVDAEASTAFIQHGDKYLADIYQLARQRLANVGVEQIFGGDRCTYTENETFFSYRRDKTTGRMASFIWLI | – | – | – | – | – | – | 4 | 2.1 | 5.6 | SGZ>DMP>>veratryl alcohol>>guaiacol | 44 | 0.5
